Results taken from patent US20220054630A1 (published 2022).

Biological target: T1, wild-type soluble E2 (sE2), HCV isolate H77C, residues 384-661 (UniProt P27958 384-661)
T1 chain: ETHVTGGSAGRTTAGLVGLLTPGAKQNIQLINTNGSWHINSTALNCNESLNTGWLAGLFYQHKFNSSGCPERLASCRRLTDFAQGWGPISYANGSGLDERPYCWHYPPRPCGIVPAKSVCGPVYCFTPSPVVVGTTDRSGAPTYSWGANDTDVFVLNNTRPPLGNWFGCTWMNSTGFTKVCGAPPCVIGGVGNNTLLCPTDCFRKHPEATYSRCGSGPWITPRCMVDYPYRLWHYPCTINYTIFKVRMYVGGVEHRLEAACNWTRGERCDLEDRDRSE
Assay: BLI

B1: CD81 large extracellular loop (LEL) (receptor)
chain: FVNKDQIAKDVKQFYDQALQQAVVDDDANNAKAVVKTFHETLDCCGSSTLTALTTSVLKNNLCPSGSNIISNLFKEDCHQKIDDLFSGK
Kd: 22 nM
